Reference: the DeepSol protein solubility set

Assay: soluble on expression in E. coli; label from the status in PepcDB or PDB records
In the case of “MGSVRKASAWLGLVDDNNDDERYYDDDYSEGPESGDAWVTDPRVKVASDVAEEKGRRIATVTPDSFRDARAIGELFRDGVPVIVNLTAMEGTDAKRVVDFAAGLIFGLRGSIERVSTRVFLLSPADTQVISGESAAHRSDGFFNQSLEHHHHHH”, the “soluble on expression in E. coli” value is reported as “not soluble”.
For “MAHHHHHHMLNPTFSLYRKTLQSYPVPPKIRHYDRRWSGSRTNPYNRQYWRVIMNENYSRPSFWVSDFRHRYLMRTGTDYQGQVPSSPQPGLYQGFSDVHKLLANHPKPQRESRHLPVLPMTPRVVFEHANEKRIDTAKKMRRDRRRIEELKTLEFWGWYMKLQRVRGRWCREQGVSSRGVYGPAVDAAELWG”, the “soluble on expression in E. coli” value was “not soluble”.
For “MAHHHHHHMKNIFKYKNRLTFFRKGFSTTNKPKVEIKKTILYDSHKKNNAIFKIQHGFYLPDEYKDITLITSNLHTRTNCSLFDYTYRPILKISGEDKINFIEKYVGSDIKGLWENECRISLLLNDKGGIIDDIMIILREKYLLLYLNIQCKEKVYKYLKDKLLENGKLQVQIEEFTSHSSICIQGSKSSDVLKELIDYNNESVETNLDNCSFMSSTLTKINKIDNCILNRYTCTGEDGFDILIPNKYVNDLYNLILKNELVKPGGLAVQNTLRLESGFCEYGKDINEDITPIESNYKWSLGQRRLKELNFNGAHIIMDQIKNGTKIKRVGILINTNIVPKENTKIYSHENAEQIIGYITSSVFSPVLQKPICMGYVKSEYAHINNLIKVDCLNKLEIAQITKLPFVPLSIYKL”, the “soluble on expression in E. coli” value was “not soluble”.
With “MSLAIKMLAIDLDGTLLTDSKTILPGTYKALQEAKAAGIKIVLTSGRPLSGIKGYAEELGLSGSEEYAILFNGAVVQNLDGRVLISHDLDFGDFNTLLHMQRLSDVNLDFETPDRFYTLDKRISIRLQIDGAETKNQLWIQDRSDFKKDFTFAKAVYQCDDPDQVDRLWNRLPDWFFQSYAVVRSWPEVVEVGSLAASKGYAVSELASRLGLSNSEVMIFGDQGNDRSMFEIPDFKRVAMGNAIDEIKDLADYVTDTNERDGIAKALRKLVLEGHHHHHH” the “soluble on expression in E. coli” value was “soluble”.
With “MSLSASQTSDVPTLLVKIFGKDRPGITAGLFDTLAAYSVDVVDIEQVVTRGRIVLCALVTEPPRGLEGDLRATVHSWAESLKLQAEIISGIGDNRPRGFGRSLVTVLGHPLTAEATAAIAARITESGSNIDRIFRLAKYPVTAVEFAVSGVETEPLRTALATEAAALGVDIAVVAAGLHRRAQRLVVMDVDSTLIQDEVIELFAAHAGCEDEVAEVTAAAMRGELDFEQSLHARVALLAGLDASVVDKVRAEVRLTPGARTLIRTLKRLGYQVGVVSGGFTQVTDALQEQLGLDFAQANTLEIVDGRLTGRVTGEIVDRAGKARLLRRFAAAAGVPLSQTVAIGDGANDLDMLNAAGLGVAFNAKPVVREAAHTAVNVPFLDTVLYLLGITREEVEAADTLADDLGDGPGREGHHHHHH” the “soluble on expression in E. coli” value was “soluble”.
With “MGSDKIHHHHHHMLEQTLLDIALDLSQSLPKKALYQRFMTAVNQVMPCDAVALLEYQGHELVPVAVDGLLPEVLGMGFSPEDHPRLQAIMASKQPIRFNADSELADPYDGYLVIDPKRVLDVHACIGCSLFVEGRLVGVLTLDALNVGAFDAIDDITIATLAALAAATIRNVNLLNQLDRQQYKLDDNDSVFKQKPLKKSDFIGETPCMQALKDDIRIVANSELSVIIGGETGVGKELVARSLHAQSKRRAQALVQVNCAALPDTLAESELFGHSKGAFTGAAKDRMGKFELAHQGTLFLDEVGELSLELQAKLLRVIQEGEIQRIGLDRNIHVDVRIIAASNRNLLQRVKEGLFREDLYHRLCVYPLNVPPLRERQDDIPLLCGNILTNLKHKIGLSSAKTVRLTQAAMQKLQGYPWPGNVRELQHVLMRAALKASAEAKGITVIQLHHLTFACEPMSQGLTELTAFNSNSPDSNPSTSDETFAAANREEKVEPPVISRSFNDRVADFQRQVIRQSLDDNSQVWAKAARQLQLDRGNLHRQAKRLGLIP” the “soluble on expression in E. coli” value was “not soluble”.
With “MGSDKIHHHHHHMRVMAFVQARMGSTRLPGKSLMPVWNGMGVLEMTLRRALRARTLSGVVLCTSTDPACDALETLASGLGVQAFRGPEDDVLTRYALATERFEPDAVVRICADSPLVCPEGIDALVAFFRDEGLDYAAHAMDGTGLPDGLGCEVFTAAALAQAHAEATAPEDREHVSLFIRHRPERFRQATLAADAALRAPGVSLDVDTQDDLDALRRFIMALPPSEGPFWSADAIAPLARGLHTPPQGTSMDIASDDYHDFFIRDGKLIGEFEQMYRKSRHAPWHQDEACDKWFNKVSAALVGHALDDPSVRTVFEVGSGLGYFLSQFAGEGRTLTGTDVSATAVEKARALFPGISFEVDDIRFEGRRGPYDLCLMQAVCWCIFPHMDDVVRNVTATVRPGGYLFLGECFQPLDGPFAGKDVIPTPDALIGHFSHAFDTVADVRVTRGEMGGGPIIYWLGRRRG” the “soluble on expression in E. coli” value was “not soluble”.
In the case of “MSLTNQAYPMALVSQDSLDSYIRSVNGYPMLSADEERELAERLHYKGDIDAAKGLILSHLRFVVHVARGYSGYGLPMADLVQEGNIGLMKAVKRFNPEMGVRLVSFAVHWIKAEIHEYVLRNWRIVKIATTKAQRKLFFNLRKSKKRLGWFNNGEVETVARELGVEPAEVREMESRLAAQDAAFEMSAEDDENGMAYTAPVLYLEDKHSDLADNLEAENWEAHTTQRLSMALASLDERSQHIVRARWLDDDNKTTLQDLAEMYGVSAERIRQLEKNAMRKLKEAVGEEGHHHHHH”, the “soluble on expression in E. coli” value is reported as “soluble”.
In the case of “MKLTLKNLSMAIMMSTIVMGSSAMAADSNEKIVIAHRGASGYLPEHTLPAKAMAYAQGADYLEQDLVMTKDDNLVVLHDHYLDRVTDVADRFPDRARKDGRYYAIDFTLDEIKSLKFTEGFDIENGKKVQTYPGRFPMGKSDFRVHTFEEEIEFVQGLNHSTGKNIGIYPEIKAPWFHHQEGKDIAAKTLEVLKKYGYTGKDDKVYLQCFDADELKRIKNELEPKMGMELNLVQLIAYTDWNETQQKQPDGSWVNYNYDWMFKPGAMKQVAEYADGIGPDYHMLIEETSQPGNIKLTGMVQDAQQNKLVVHPYTVRSDKLPEYTPDVNQLYDALYNKAGVNGLFTDFPDKAVKFLNKE”, the “soluble on expression in E. coli” value is reported as “soluble”.
In the case of “MAHVVILGAGTGGMPAAYEMKEALGSGHEVTLISANDYFQFVPSNPWVGVGWKERDDIAFPIRHYVERKGIHFIAQSAEQIDAEAQNITLADGNTVHYDYLMIATGPKLAFENVPGSDPHEGPVQSICTVDHAERAFAEYQALLREPGPIVIGAMAGASAFGPAYEYAMIVASDLKKRGMRDKIPSFTFITSEPYIGHLGIQGVGDSKGILTKGLKEEGIEAYTNCKVTKVEDNKMYVTQVDEKGETIKEMVLPVKFGMMIPAFKGVPAVAGVEGLCNPGGFVLVDEHQRSKKYANIFAAGIAIAIPPVETTPVPTGAPKTGYMIESMVSAAVHNIKADLEGRKGEQTMGTWNAVCFADMGDRGAAFIALPQLKPRKVDVFAYGRWVHLAKVAFEKYFIRKMKMGVSEPFYEKVLFKMMGITRLKEEDTHRKAS”, the “soluble on expression in E. coli” value is reported as “soluble”.
In the case of “MPNLPALPDMGLPVVTSDLTATLLPGVASPIVPGQPIEQAFSSILISMMKSDQAIEDDTENPAPVSIDALIAGMIAAPANPPQLVPSQPAPDALDTPNAPDAPAEELLSMLATSMMPNTGQPVTDEPVTFPAGGLASATPPNLPSDSGRHAADPLQTTSQAHAAPLPAELPAGNISTSTPFPAPVNSFNQAIDAANFADSGKSLPPSMTSVPVTPVAAHTSSTPLTDIAADTTANDAPAIAAEFGQPDWPEEFGRKITWLATQRMQAAELKLHPAHLGPIEISLQLSDDQRLTAQFISHHPAVREAIEANLPRLREIMAENGITLADTSVSADTPGQQAENRQGSPFRRPAAGDHSTYDSTSPQTPALQATRRSSLIDTFA”, the “soluble on expression in E. coli” value is reported as “not soluble”.
With “MATQRAHRAETPAHPNRLWIWEKHVYLDEFRRSWLPVVIKSNEKFQVILRQEDVTLGEAMSPSQLVPYELPLMWQLYPKDRYRSADSMYWQILYHIKFRDVEDMLLELIDSESNDE” the “soluble on expression in E. coli” value was “soluble”.
With “MGSDKIHHHHHHMTRVVIIGGSGHVGTYLVPRLVEAGYEVVNVSRGQRAAYTLNAAWKSVEPVVIDRDTEEKAGTFGEKVRALKADIVVDMISFTLDSTKQIVGALRGEVQHFLHCGTIWVYGHNTAIPATEDQPKNPFGSYGTQKAEIESWLLNEARRNGFPATVFRPGHIVGPGWEPLNPAGHFDVGVFSQIARGEPLVLPNLGNETVHHVHADDVAQMVMRAIVSWSNAVGEAFNTVSPQAINLRGYAEALYNWFGHAPRLSYEPFDTWKGKQTEENWRATWEHIARSPSHSIAKARNLLGYDPRYSSLQAVYESVEWLVANGKLSR” the “soluble on expression in E. coli” value was “not soluble”.
With “ASSSYYEQYHSLNEIYSWIEVMTERYPDMVEKIHIGSSYEKYPLYVLKVSKKEQRAKNAMWIDCGIHAREWISPAFCLWFVGSVTYYYGKEKMHTNLLKHMDFYIMPVVNVDGYDYTWKKDRMWRKNRSLHEKNACVGTDLNRNFASKHWCGEGASSSSCSEIYCGTYPESEPEVKAVADFLRRNIKHIKAYISMHSYSQKIVFPYSYSRSRSKDHEELSLVAREAVFAMENIHRNIRYTHGSGSESLYLAPGGSDDWIYDLGIKYSFTFELRDKGKYGFLLPESYIRPTCSEALVAVAKIASHVVKNV” the “soluble on expression in E. coli” value was “soluble”.
For “MSLGYRVGNSDSTSLLSAFAPPERAKKKSKEKRPLQAARFLSLLYPKTDPHSAVQDPSLVHEEHQTRLAYLQDRLCSTGDILKNTRTLETIAAYKQAVKEFVQYAIKHNYTTESKSSIRIDRGTGMPDTVIFTKIKVIDQKLASFVRELMSHQVDQLTVLQKTEEIYGMLVDLLIEGHHHHHH”, the “soluble on expression in E. coli” value was “soluble”.
In the case of “MEAKQTVFVNEFTNGILDPHGNMLGPVQDGGYIVANTTPGCWGPMITPCIRGGHEVTKPVFVEGAEVGDAIAIKIKSIRVTSIATSSGNDKPMEGRFVGDPFVAVKCPQCGTMYPETKIEGIGPEAIRCANCGADVTPFVFTNGYTMTFDPNRQIGVTVHKEAAEHIARQGRYYMATPDNSVQNPIVTFAPHDLVGTVARLRPFLGQLGTTPARPLPDSHNAGDFGQFLINAPHEYGITKEQLEDRTDGHMDINRVREGAVLICPVKVRGGGVYLGDMHAMQGDGEIAGHTTDVSGIVTLQVKVIKGLTIDGPILLPVAEDLPYLAKPLTKKEKEIALDLAQSWGVDKLEESLPISFVGTGANLNEATENGLQRAAKTLGISVPEVMNRATITGAIEIGRHPGVITVTFLCPIRYLDKISLTSLVYDQYRSVLE”, the “soluble on expression in E. coli” value is reported as “not soluble”.
In the case of “YLFSSTAVASDESRPKIGLVLAGGGAKGAAHIGVLKALEEMHIPVDYITGTSMGAYVGGLYASGMSADEIEAFIDTVDWNSGFVDKVERSERQIRDKEYEDRYQIGTDIGFSFTELKAPKGFVQGQTMAKILRTTSDNIPYLNSFDQLPIPFRAVATDIEKLEPVVLDKGNLAEAMMASMSVPGALPPAEYDGRLLVDGGVVNNMPVDVV”, the “soluble on expression in E. coli” value is reported as “not soluble”.
In the case of “MGSDKIHHHHHHMRILQIGKFYPIRGGIEKVMYDITMGLSQRQVYCDMLCASAEKQKPENLLLNDYARILCVSTWKKVAATMLSPAMIFRLRKINKEYDIIHIHHPDPMACLALFLSGYKGPVVLHWHSDILKQKMLLKLYSPLQNWLLRRAKVIVGTTPVYVQESPFLENIQRKVISVPIGIDEMKPVPGRVAQIKERYAGKKIIFSLGRLVEYKGYEYLIKASQKLNDDYIILIGGKGPLQEYLQSLIDELGVRKKVKLLGFIDDKDLPDYFGACDLFCLSSIWKTEAFGIVQIEAMSCGKPVIAMNIPESGVSWVNINRFSGINVKPEDADALAEAITAVLTDECLYEELARGARRRYETMFTKELMTELCLNLYSGVLDSSETDYPANKKE”, the “soluble on expression in E. coli” value is reported as “not soluble”.
With “MSLTMREVAKAAGVSIKTVSNVVNDYEFVSQATRDKVNKAIAELGYTVNVSARNLRRGQTGIIGLAIPDLQMPYFAQLSSLVIEEAKKVGLRVIVEPTQYSRDGELEALHGSQQMMIDGLIYSPLELGQDDVEQLKVDYPLVLVGERIFTDQVDHIATENVEGAKRATQYLLTTGCRRVAVVGVHPGEKVGSAALRYQGYLEALEEAGVEFDDRLVVESGMWHRSDGVRAMNALLDSGVEVDGVVALNDMLASGVMHAIQMHGLHIPDDISVVGFDNSDDSQYLSPALTSIAPGLEAVARLSVKVLKERIDGRDPNADRPGEKVFRKVASSLVVRQSTKLPIDSLVLEGHHHHHH” the “soluble on expression in E. coli” value was “not soluble”.
